Data as given in paper PMC6003225 (Molecular Biology of the Cell, 2018).

Target: T1, Danio rerio CPAP G-box domain (DrCPAP_(G-box), amino acids 943–1121) (Danio rerio, UniProt E7FCY1 943-1121)
T1 sequence (looked up): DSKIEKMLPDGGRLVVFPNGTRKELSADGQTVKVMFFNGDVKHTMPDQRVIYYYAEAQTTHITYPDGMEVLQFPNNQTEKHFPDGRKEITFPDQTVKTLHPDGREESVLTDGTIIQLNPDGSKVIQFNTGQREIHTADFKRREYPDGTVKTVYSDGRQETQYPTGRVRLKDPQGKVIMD
Experiment: ITC

Kd: 34 ± 4 µM
B1: C. elegans SAS-5 fragment corresponding to amino acids 2–122 (SAS-5N) (domain or fragment, UniProt Q20010 2-122, looked up)
chain: NNYDDLPCSIYFKKPTVQEFVDQPRVFEDSEVPAFQEVLQLPQERTKPPVPSTQPIVAAVEVAKKKSCLSAPKPRKEPPSHPALRQKTVAFGKTVNVSQTVEGTSRNSKKVLASTMSAQNT
